Measurements reported in PMC8064889.

Target: SARS-CoV-2 RBD, His6-tagged, for biolayer interferometry (SARS-CoV-2) (UniProt P0DTC2)
Test: BLI

CR3022 Fab
Kd: 46.3 nM
